We go through 11 sequences from the supplement of paper PMC9170038.

This data set concerns MS2 coat protein. Description: apparent KD of MS2 coat protein; higher = weaker reporter binding. Conditions: Eterna round: R101. The protocol:
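RNA-MaP: designed FMN/MS2 RNA switches (84 nt design region) are transcribed on-chip within common flanks and titrated with SNAP-549-labelled MS2 coat protein (about 1-3000 nM) in 100 mM Tris pH 7.5, 80 mM KCl, 4 mM MgCl2, without or with 200 uM FMN. Median apparent KD per design; activation ratio = KD,OFF / KD,ON.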

As for “AAUUAAAUCCUAGGAUAUGACUCCGAAACGGAGUCAGAAGGAGGAUCACCCUUUCAAAGCUCAGCGUCGAAAGACGCUGAGCAA [#SharedSequence - ExNG1-17] (puzzle (switch architecture): Exclusion NG 1)”, the “apparent KD of MS2 coat protein” value is 82.9 nM (input ligand: FMN 200 uM) and 649 nM (input ligand: none).
Consider “ACACAUGAGGAUCACCCAUGUAGCCGGCGUCUGCGCCAGCCACAGGAUAUACGGCAACACAAGCCGUAGAAGGGUGAUAAACAC [Lalearledi] (puzzle (switch architecture): Same State NG 3)”, for which the “apparent KD of MS2 coat protein” value reads like this: (input ligand: FMN 200 uM) 33.9 nM; (input ligand: none) 49.1 nM.
For the sequence “AGAGCUGCUCAGAAGGAGGAUCACCCUUUCGAAAGAAAUACGGAGGCUGAAAAGCCUCCGAGAUUUUAGGAUAUGAGCAGCUCA [#SharedSequence - IExNG2: 8] (puzzle (switch architecture): Inverted Exclusion NG 2)”, the “apparent KD of MS2 coat protein” value was 89.1 nM (input ligand: FMN 200 uM) and 74.5 nM (input ligand: none).
For “AGCUAUGACAUGAGGAUCACCCAUGUAUACAUGGGAUUGACGUAGGAUAUGCUGAAGAUUAAAGUGCAGAAGGACGGCUUAGCG [JR #DistanceFar #Hairpin #NP SSNG3 Sub065] (puzzle (switch architecture): Same State NG 3)”, the “apparent KD of MS2 coat protein” value amounted to 512 nM (input ligand: FMN 200 uM) and 1250 nM (input ligand: none).
For the sequence “AUCAGCUCGUGAGGAUAUACGUCACUGCGUCAGCAGUGUGGUAAGAUCACAUGAGGAUCACCCAUGUAGAAGGCACGAGCUGAU [#FlippingAptamerGcClosingBasepair - Ex NG2 #82] (puzzle (switch architecture): Exclusion NG 2)”, the “apparent KD of MS2 coat protein” value is, setting by setting: (input ligand: FMN 200 uM) 539 nM; (input ligand: none) 23.6 nM.
For “CACCUAAAUCCUAGAGGAUCACCCUAGGAUAUCACCGUCGAGGUGCCAUAAUGGCACCUCGACGGUGAGAAGGAGGAAAAAUAA [#SharedSequence - SLExNG3: 10] (puzzle (switch architecture): Small Loop Exclusion NG 3)”, in that order: 5.85 nM and 4.95 nM.
Regarding “CACCUAAAUCCUAGAGGAUCACCCUAGGAUAUCACCGUCGAGGUGCCAUAAUGGCACCUCGACGGUGAGAAGGAGGGUGAAAUA [#SharedSequence - SLExNG3: 8] (puzzle (switch architecture): Small Loop Exclusion NG 3)”, the “apparent KD of MS2 coat protein” value (input ligand: FMN 200 uM) stood at 6.49 nM and the “apparent KD of MS2 coat protein” value (input ligand: none) is 5.08 nM.
For the sequence “CCGACGUUUCAGAAGGCACUCGCAUAAUGCGAGUGAGGAUAUGAGGAUCACCCAUAUCAUCGUCGGAGUCACCGAAACGGUGAC [#SharedSequence - IEx NG 3-2] (puzzle (switch architecture): Inverted Exclusion NG 1)”, the “apparent KD of MS2 coat protein” value is, setting by setting: (input ligand: FMN 200 uM) 12.4 nM; (input ligand: none) 7.89 nM.
For “CCUGCACCUCAAGGAUAUCCAGUCGUUUCGACUGGAGAAGGUGAGGAUCACCCAUCUAGCCUGACGUUUGUCAGGCAUGCAGGU [#AddUracilToBrourdLoops 5 - Jieux - Exclusion NG1] (puzzle (switch architecture): Exclusion NG 1)”, the “apparent KD of MS2 coat protein” value stood at 929 nM (input ligand: FMN 200 uM) and 398 nM (input ligand: none).
On to “CGCAUAGACAUGAGGAUCACCCAUGUAUAAAUAGGAUUAACGUAGGAUAUGCAGAAGAUUAAAGUGCAGAAGGACGGCUUUGCG [JR #DistanceFar #NP SSNG3 Sub070] (puzzle (switch architecture): Same State NG 3)”, for which the “apparent KD of MS2 coat protein” value came out at 7.52 nM (input ligand: FMN 200 uM) and 11.5 nM (input ligand: none).
For “CGCUAUUACAUGAGGAUCACCCAUGUAUAUAUGGGAUUUUCGUAGGAUAUGCAGAAGAUUAAAGUGCAGAAGGACGGAAUAGCG [JR #DistanceClose #Static #NP SSNG3 Sub066] (puzzle (switch architecture): Same State NG 3)”, the “apparent KD of MS2 coat protein” value was 31.9 nM (input ligand: FMN 200 uM) and 46.9 nM (input ligand: none).
